The test system of this series is Escherichia coli TOP10. The series is described as follows: shrunken log2 fold change of peptide-encoding DNA abundance (4.5 h post-induction vs induction); higher = less antimicrobial activity (less host growth inhibition). To be noted: time post-induction: 4.5 h; library: site-saturation at positions 5, 18, 19, 20.
As for RRIRNRPPRLPRPRPRPWSAPRP, the “shrunken log2 fold change” value was -0.304.

Turning to RRIRYRPPRLPRPRPRPFYPPRP, the “shrunken log2 fold change” value was -0.747.

For the sequence RRIRARPPRLPRPRPRPWKSPRP, the “shrunken log2 fold change” value is -0.00111.

With RRIRPRPPRLPRPRPRPCHDPRP, the “shrunken log2 fold change” value is -0.097.

For RRIRSRPPRLPRPRPRPIGDPRP, the “shrunken log2 fold change” value was found to be 0.0153.

Turning to RRIRQRPPRLPRPRPRPGNDPRP, the “shrunken log2 fold change” value was -0.299.

RRIRCRPPRLPRPRPRPGMTPRP: the “shrunken log2 fold change” value amounted to 0.0507.

Consider RRIRWRPPRLPRPRPRPFTNPRP, for which the “shrunken log2 fold change” value turned out to be 0.115.

With RRIRSRPPRLPRPRPRPWPGPRP, the “shrunken log2 fold change” value was -0.139.

As to RRIRLRPPRLPRPRPRPYQTPRP, the “shrunken log2 fold change” value is 0.0345.

Regarding RRIRTRPPRLPRPRPRPFWYPRP, the “shrunken log2 fold change” value is -0.374.

On to RRIRKRPPRLPRPRPRPFCRPRP, for which the “shrunken log2 fold change” value worked out at 0.558.

As for RRIRTRPPRLPRPRPRPRWFPRP, the “shrunken log2 fold change” value came to 0.196.

Turning to RRIRCRPPRLPRPRPRPMHVPRP, the “shrunken log2 fold change” value came out at 0.0371.

In the case of RRIRWRPPRLPRPRPRPSDDPRP, the “shrunken log2 fold change” value is 0.328.

With RRIRIRPPRLPRPRPRPMIWPRP, the “shrunken log2 fold change” value is -0.0224.

As for RRIRLRPPRLPRPRPRPWLKPRP, the “shrunken log2 fold change” value is 0.0827.

Take RRIRTRPPRLPRPRPRPRLDPRP: the “shrunken log2 fold change” value is -0.0828.

Take RRIRKRPPRLPRPRPRPATTPRP: the “shrunken log2 fold change” value turned out to be 0.407.

As to RRIRGRPPRLPRPRPRPQIQPRP, the “shrunken log2 fold change” value worked out at 0.0796.

Take RRIRARPPRLPRPRPRPLEPPRP: the “shrunken log2 fold change” value is 0.451.

Turning to RRIRPRPPRLPRPRPRPDNDPRP, the “shrunken log2 fold change” value was 0.0931.

For RRIRTRPPRLPRPRPRPCLIPRP, the “shrunken log2 fold change” value is -0.0324.

In the case of RRIRCRPPRLPRPRPRPHMCPRP, the “shrunken log2 fold change” value worked out at 0.099.

Consider RRIRWRPPRLPRPRPRPMPLPRP, for which the “shrunken log2 fold change” value was -0.0398.

Take RRIRFRPPRLPRPRPRPLLCPRP: the “shrunken log2 fold change” value is -0.105.

As to RRIRGRPPRLPRPRPRPSQGPRP, the “shrunken log2 fold change” value is -0.187.

As to RRIRLRPPRLPRPRPRPKVVPRP, the “shrunken log2 fold change” value was -0.0761.

For RRIRSRPPRLPRPRPRPWFLPRP, the “shrunken log2 fold change” value is -0.565.

As to RRIRRRPPRLPRPRPRPDCYPRP, the “shrunken log2 fold change” value is -0.236.

For RRIRSRPPRLPRPRPRPYLTPRP, the “shrunken log2 fold change” value was -0.429.

Turning to RRIRQRPPRLPRPRPRPRLAPRP, the “shrunken log2 fold change” value was 0.594.

RRIRWRPPRLPRPRPRPQNRPRP: the “shrunken log2 fold change” value was 0.0839.

With RRIRHRPPRLPRPRPRPCEVPRP, the “shrunken log2 fold change” value is -0.00674.

Regarding RRIRYRPPRLPRPRPRPDAKPRP, the “shrunken log2 fold change” value is -0.118.

Turning to RRIRQRPPRLPRPRPRPSCCPRP, the “shrunken log2 fold change” value is -0.408.

With RRIRYRPPRLPRPRPRPDVFPRP, the “shrunken log2 fold change” value is -0.0152.

As for RRIRIRPPRLPRPRPRPEFHPRP, the “shrunken log2 fold change” value amounted to 0.0992.

RRIRPRPPRLPRPRPRPGSCPRP: the “shrunken log2 fold change” value was found to be 0.111.

As for RRIRPRPPRLPRPRPRPACEPRP, the “shrunken log2 fold change” value is 0.0148.

With RRIRERPPRLPRPRPRPNLTPRP, the “shrunken log2 fold change” value was -0.171.

As for RRIRKRPPRLPRPRPRPNTVPRP, the “shrunken log2 fold change” value amounted to 0.126.

With RRIRGRPPRLPRPRPRPVRYPRP, the “shrunken log2 fold change” value worked out at 0.428.

Consider RRIRRRPPRLPRPRPRPQPLPRP, for which the “shrunken log2 fold change” value amounted to 0.509.

As to RRIRRRPPRLPRPRPRPRFNPRP, the “shrunken log2 fold change” value is -0.189.

As for RRIRPRPPRLPRPRPRPQRWPRP, the “shrunken log2 fold change” value was 0.156.

For RRIRCRPPRLPRPRPRPQDSPRP, the “shrunken log2 fold change” value is -0.0482.

In the case of RRIRIRPPRLPRPRPRPQMPPRP, the “shrunken log2 fold change” value is -0.662.

Consider RRIRARPPRLPRPRPRPIQMPRP, for which the “shrunken log2 fold change” value amounted to 0.0579.

Turning to RRIRWRPPRLPRPRPRPHGFPRP, the “shrunken log2 fold change” value amounted to 0.407.

RRIRCRPPRLPRPRPRPDNSPRP: the “shrunken log2 fold change” value was -0.53.

RRIRDRPPRLPRPRPRPEIHPRP: the “shrunken log2 fold change” value was found to be 0.597.

Regarding RRIRVRPPRLPRPRPRPNKVPRP, the “shrunken log2 fold change” value is -0.271.

Regarding RRIRYRPPRLPRPRPRPFNHPRP, the “shrunken log2 fold change” value is -0.732.

For RRIRSRPPRLPRPRPRPNFLPRP, the “shrunken log2 fold change” value was -0.304.

Turning to RRIRRRPPRLPRPRPRPFCKPRP, the “shrunken log2 fold change” value was -0.188.

Turning to RRIRSRPPRLPRPRPRPIVGPRP, the “shrunken log2 fold change” value is 0.0247.

For RRIRHRPPRLPRPRPRPKQTPRP, the “shrunken log2 fold change” value turned out to be 0.179.

For RRIRRRPPRLPRPRPRPGPDPRP, the “shrunken log2 fold change” value came out at 0.518.

For RRIRHRPPRLPRPRPRPAKGPRP, the “shrunken log2 fold change” value worked out at 0.0449.

As for RRIRGRPPRLPRPRPRPMRRPRP, the “shrunken log2 fold change” value is 1.25.

Take RRIRHRPPRLPRPRPRPPAYPRP: the “shrunken log2 fold change” value was determined as 0.181.

For the sequence RRIRPRPPRLPRPRPRPEEYPRP, the “shrunken log2 fold change” value amounted to 0.00398.

As for RRIRPRPPRLPRPRPRPARTPRP, the “shrunken log2 fold change” value was determined as 0.396.

As for RRIRDRPPRLPRPRPRPHGHPRP, the “shrunken log2 fold change” value was found to be 0.0317.

Turning to RRIRCRPPRLPRPRPRPLAMPRP, the “shrunken log2 fold change” value came out at 0.062.

On to RRIRSRPPRLPRPRPRPRDGPRP, for which the “shrunken log2 fold change” value was found to be 1.5.

RRIRTRPPRLPRPRPRPDDNPRP: the “shrunken log2 fold change” value was -0.195.

With RRIRRRPPRLPRPRPRPRLLPRP, the “shrunken log2 fold change” value came to 0.474.

RRIRNRPPRLPRPRPRPCISPRP: the “shrunken log2 fold change” value was -0.802.

In the case of RRIRLRPPRLPRPRPRPSEQPRP, the “shrunken log2 fold change” value is -0.153.

RRIRPRPPRLPRPRPRPEKMPRP: the “shrunken log2 fold change” value turned out to be 0.742.

On to RRIRYRPPRLPRPRPRPHLFPRP, for which the “shrunken log2 fold change” value is -0.313.

Turning to RRIRSRPPRLPRPRPRPIRAPRP, the “shrunken log2 fold change” value worked out at 0.106.

Consider RRIRCRPPRLPRPRPRPEKFPRP, for which the “shrunken log2 fold change” value worked out at 0.0607.

With RRIRNRPPRLPRPRPRPIDWPRP, the “shrunken log2 fold change” value came to 0.0533.

For RRIRTRPPRLPRPRPRPWQVPRP, the “shrunken log2 fold change” value was -0.0764.

Turning to RRIRCRPPRLPRPRPRPTTWPRP, the “shrunken log2 fold change” value was -0.125.

Consider RRIRARPPRLPRPRPRPSKDPRP, for which the “shrunken log2 fold change” value is -0.111.

Regarding RRIRSRPPRLPRPRPRPTTSPRP, the “shrunken log2 fold change” value was 0.094.

Regarding RRIRKRPPRLPRPRPRPDCIPRP, the “shrunken log2 fold change” value was determined as 0.75.

For the sequence RRIRSRPPRLPRPRPRPWPRPRP, the “shrunken log2 fold change” value was found to be 0.646.

For RRIRTRPPRLPRPRPRPWQNPRP, the “shrunken log2 fold change” value is -0.0181.

In the case of RRIRGRPPRLPRPRPRPGDQPRP, the “shrunken log2 fold change” value amounted to 0.777.

As to RRIRWRPPRLPRPRPRPHWWPRP, the “shrunken log2 fold change” value came to 0.629.

On to RRIRVRPPRLPRPRPRPCCCPRP, for which the “shrunken log2 fold change” value worked out at 0.0615.

As for RRIRFRPPRLPRPRPRPAQSPRP, the “shrunken log2 fold change” value worked out at 0.0902.

As to RRIRGRPPRLPRPRPRPGPYPRP, the “shrunken log2 fold change” value stood at 0.324.

RRIRHRPPRLPRPRPRPHTQPRP: the “shrunken log2 fold change” value amounted to 0.0972.

With RRIRQRPPRLPRPRPRPQENPRP, the “shrunken log2 fold change” value was -0.0517.

As for RRIRKRPPRLPRPRPRPGVTPRP, the “shrunken log2 fold change” value amounted to 0.409.

Turning to RRIRPRPPRLPRPRPRPEYLPRP, the “shrunken log2 fold change” value was found to be 0.0461.

Consider RRIRSRPPRLPRPRPRPYTYPRP, for which the “shrunken log2 fold change” value was -0.0783.

RRIRGRPPRLPRPRPRPPQKPRP: the “shrunken log2 fold change” value came out at 1.35.

For the sequence RRIRTRPPRLPRPRPRPVPDPRP, the “shrunken log2 fold change” value was -0.0687.

Consider RRIRNRPPRLPRPRPRPTPMPRP, for which the “shrunken log2 fold change” value came to 0.0289.

Turning to RRIRGRPPRLPRPRPRPGPWPRP, the “shrunken log2 fold change” value came out at 0.484.

Take RRIRRRPPRLPRPRPRPEMPPRP: the “shrunken log2 fold change” value was 0.207.

In the case of RRIRHRPPRLPRPRPRPFVGPRP, the “shrunken log2 fold change” value was -0.31.

In the case of RRIRNRPPRLPRPRPRPDGAPRP, the “shrunken log2 fold change” value was 0.0931.

With RRIRWRPPRLPRPRPRPKMYPRP, the “shrunken log2 fold change” value is -0.13.

For RRIRARPPRLPRPRPRPEHKPRP, the “shrunken log2 fold change” value is 0.0692.

For RRIRCRPPRLPRPRPRPEPMPRP, the “shrunken log2 fold change” value amounted to 0.176.

In the case of RRIRKRPPRLPRPRPRPKMDPRP, the “shrunken log2 fold change” value is 0.158.

For the sequence RRIRFRPPRLPRPRPRPYSKPRP, the “shrunken log2 fold change” value is -0.996.

On to RRIRERPPRLPRPRPRPLFDPRP, for which the “shrunken log2 fold change” value was -0.581.

For RRIRGRPPRLPRPRPRPGCDPRP, the “shrunken log2 fold change” value amounted to 1.26.

On to RRIRFRPPRLPRPRPRPDISPRP, for which the “shrunken log2 fold change” value was -0.216.

Turning to RRIRFRPPRLPRPRPRPEQFPRP, the “shrunken log2 fold change” value was -0.115.

Consider RRIRARPPRLPRPRPRPCKYPRP, for which the “shrunken log2 fold change” value is -0.201.

Consider RRIRYRPPRLPRPRPRPKDIPRP, for which the “shrunken log2 fold change” value was -0.109.

For the sequence RRIRRRPPRLPRPRPRPTRWPRP, the “shrunken log2 fold change” value was determined as 0.799.

For RRIRMRPPRLPRPRPRPWDMPRP, the “shrunken log2 fold change” value came out at 0.00416.

As for RRIRFRPPRLPRPRPRPCEGPRP, the “shrunken log2 fold change” value is -0.086.

For the sequence RRIRFRPPRLPRPRPRPDCPPRP, the “shrunken log2 fold change” value was -0.364.

Take RRIRKRPPRLPRPRPRPDAAPRP: the “shrunken log2 fold change” value was 0.976.

Take RRIRHRPPRLPRPRPRPTAEPRP: the “shrunken log2 fold change” value came out at 0.056.

For RRIRIRPPRLPRPRPRPWLCPRP, the “shrunken log2 fold change” value is -0.121.

RRIRMRPPRLPRPRPRPPPIPRP: the “shrunken log2 fold change” value came out at 1.47.

Regarding RRIRGRPPRLPRPRPRPESMPRP, the “shrunken log2 fold change” value turned out to be 1.19.

Regarding RRIRERPPRLPRPRPRPLCDPRP, the “shrunken log2 fold change” value came out at 1.81.

Consider RRIRRRPPRLPRPRPRPSSGPRP, for which the “shrunken log2 fold change” value is 0.0144.

Take RRIRGRPPRLPRPRPRPLKGPRP: the “shrunken log2 fold change” value was -0.117.

RRIRCRPPRLPRPRPRPNGNPRP: the “shrunken log2 fold change” value is -0.288.

With RRIRCRPPRLPRPRPRPSDVPRP, the “shrunken log2 fold change” value is 0.00436.

Source of the values: the supplement of paper PMC9112550, “Optimization of the antimicrobial peptide Bac7 by deep mutational scanning” (BMC Biology, 2022).
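Note: peptides expressed intracellularly from a pBAD plasmid library in pooled LB shake-flask culture, induced with 0.3% L-arabinose, DNA abundance read by NGS, three biological replicates, DESeq2 with apeglm shrinkage.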
